Measurements reported in patent publication US20240287138A1, “CYCLIC PEPTIDES FOR INHIBITING TNF RECEPTOR 1 ACTIVITY” (Merck Sharp & Dohme LLC, priority 2023, published 2024).
Read-outs that look alike come from different tables or passages of the source. Numbered stars: 1 amine (or outer) side, 2 acyl side, 3 side chain; on linkers, the order of the positions; unused ones are H or OH. Bridge positions count the residues as written; N and C are the ends. Square brackets hold non-standard residues; d marks the D form. RbOHPhe4CONH2 = (2S,3R)-2-amino-3-(4-carbamoylphenyl)-3-hydroxypropanoic acid, NC(=O)c1ccc([C@@H](O[*:3])[C@H](N[*:1])C(=O)[*:2])cc1; bhcLeu = (1R,3S)-3-aminocyclopentane-1-carboxylic acid, O=C([C@@H]1CC[C@H](N[*:1])C1)[*:2]; Trp(βS-Me,7-OMe) = COc1cccc2c([C@H](C)[C@H](N)C(=O)O)c[nH]c12; dPro(trans-4-NMe2) = CN(C)[C@@H]1CN[C@@H](C(=O)O)C1; Trp(7-CN) = N#Cc1cccc2c(C[C@H](N)C(=O)O)c[nH]c12; Trp(7-Cl) = N[C@@H](Cc1c[nH]c2c(Cl)cccc12)C(=O)O; Phe(4-COOH) = N[C@@H](Cc1ccc(C(=O)O)cc1)C(=O)O; Trp(7-aza) = N[C@@H](Cc1c[nH]c2ncccc12)C(=O)O; Pip(4-aza) = O=C(O)[C@@H]1CNCCN1; hPhe = N[C@@H](CCc1ccccc1)C(=O)O; 4Pal = N[C@@H](Cc1ccncc1)C(=O)O; NMeE = CN[C@@H](CCC(=O)O)C(=O)O; Cit = NC(=O)NCCC[C@H](N)C(=O)O; αMeS = C[C@](N)(CO)C(=O)O; NMeA = CN[C@@H](C)C(=O)O; Nle = CCCC[C@H](N)C(=O)O; Pip2c = not defined here; dNMeA = CN[C@H](C)C(=O)O; Sar = CNCC(=O)O

T1: Recombinant human TNFR1 extracellular domain (ECD) protein, biotinylated via C-terminal avi-tag (human)
T1 chain: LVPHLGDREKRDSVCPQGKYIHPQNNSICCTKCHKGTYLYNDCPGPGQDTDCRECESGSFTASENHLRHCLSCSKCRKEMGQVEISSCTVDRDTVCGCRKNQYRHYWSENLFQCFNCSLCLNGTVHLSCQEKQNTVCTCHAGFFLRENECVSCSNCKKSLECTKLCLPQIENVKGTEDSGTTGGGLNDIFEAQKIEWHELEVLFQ

T2: C'-terminally 6His-tagged human soluble TNFR1 (sTNFR1, residues 1-211) (human)
T2 chain: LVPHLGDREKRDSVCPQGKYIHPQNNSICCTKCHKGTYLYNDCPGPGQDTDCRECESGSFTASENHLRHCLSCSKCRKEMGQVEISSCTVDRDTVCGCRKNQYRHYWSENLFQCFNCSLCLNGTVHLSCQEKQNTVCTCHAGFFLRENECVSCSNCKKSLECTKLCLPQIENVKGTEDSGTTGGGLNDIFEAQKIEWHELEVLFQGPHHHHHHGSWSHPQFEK

T3: TNFR1 on THP-1 Lucia NF-κB cells, P19438
T3 chain: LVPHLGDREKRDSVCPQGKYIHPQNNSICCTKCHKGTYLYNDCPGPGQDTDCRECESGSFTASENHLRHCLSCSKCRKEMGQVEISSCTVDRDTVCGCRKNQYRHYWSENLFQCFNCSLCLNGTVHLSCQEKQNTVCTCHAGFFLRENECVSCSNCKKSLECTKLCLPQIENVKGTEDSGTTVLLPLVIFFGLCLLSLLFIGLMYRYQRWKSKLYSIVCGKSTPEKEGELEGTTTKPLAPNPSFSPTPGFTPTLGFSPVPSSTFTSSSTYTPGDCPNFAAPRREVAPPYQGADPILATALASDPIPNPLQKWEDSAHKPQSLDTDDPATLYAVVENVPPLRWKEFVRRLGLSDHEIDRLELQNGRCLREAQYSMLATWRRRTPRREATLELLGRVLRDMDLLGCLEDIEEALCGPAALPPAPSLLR


Experiments:
[1] = molecular target: T1, Recombinant human TNFR1 extracellular …; assay: SPR, peptide analyte on captured biotinylated TNFR1 ECD
[2] = molecular target: T2, C'-terminally 6His-tagged human soluble …; assay: TR-FRET displacement of biotinylated peptide SEQ ID NO. 1 from sTNFR1-6His
[3] = molecular target: T3, TNFR1 on THP-1 Lucia NF-κB cells, P19438; assay: cell-based or functional assay
[4] = molecular target: C'-terminally 6His-tagged human soluble TNFR1 (sTNFR1, residues 1-211) (human); assay: TR-FRET displacement of biotinylated peptide SEQ ID NO. 1 from sTNFR1-6His; remark: listed apart in the source
[5] = molecular target: human soluble TNFR1, C-terminally 6His-tagged (sTNFR1-6His, residues 1-211), SEQ. ID NO. P1 (human); assay: TR-FRET displacement of biotinylated peptide SEQ ID NO. 1 from sTNFR1-6His; Morrison-based 5-parameter fit

Row | Binder | Kd [1] [nM] | IC50 [2] [nM] | THP-1 IC50 [3] [nM] | IC50 [4] [nM] | Kd^app [5] [nM]
1 | {CH2CO}-[hPhe]YSW[NMeA]N[4Pal]W[αMeS][Phe(4-COOH)]R[Sar]WC-NH2 (thioether N-14; SMILES C[C@H]1C(=O)N[C@@H](CC(N)=O)C(=O)N[C@@H](Cc2ccncc2)C(=O)N[C@@H](Cc2c[nH]c3ccccc23)C(=O)N[C@@](C)(CO)C(=O)N[C@@H](Cc2ccc(C(=O)O)cc2)C(=O)N[C@@H](CCCNC(=N)N)C(=O)N(C)CC(=O)N[C@@H](Cc2c[nH]c3ccccc23)C(=O)N[C@H](C(N)=O)CSCC(=O)N[C@@H](CCc2ccccc2)C(=O)N[C@@H](Cc2ccc(O)cc2)C(=O)N[C@@H](CO)C(=O)N[C@@H](Cc2c[nH]c3ccccc23)C(=O)N1C) [SEQ ID NO. 260] | 6 | 10.2 | 50.1 |  | 
2 | {CH2CO}-KYSW[dP][Cit][4Pal]W[αMeS][Phe(4-COOH)]Y[Sar]WC-NH2 (thioether N-14; SMILES CN1CC(=O)N[C@@H](Cc2c[nH]c3ccccc23)C(=O)N[C@H](C(N)=O)CSCC(=O)N[C@@H](CCCCN)C(=O)N[C@@H](Cc2ccc(O)cc2)C(=O)N[C@@H](CO)C(=O)N[C@@H](Cc2c[nH]c3ccccc23)C(=O)N2CCC[C@@H]2C(=O)N[C@@H](CCCNC(N)=O)C(=O)N[C@@H](Cc2ccncc2)C(=O)N[C@@H](Cc2c[nH]c3ccccc23)C(=O)N[C@@](C)(CO)C(=O)N[C@@H](Cc2ccc(C(=O)O)cc2)C(=O)N[C@@H](Cc2ccc(O)cc2)C1=O) [SEQ ID NO. 256] | 1.4 | 1.84 | 6.1 |  | 
3 | {CH2CO}-[Nle]H[Pip2c][Trp(7-aza)][NMeE]N[4Pal][Trp(7-Cl)][αMeS][Phe(4-COOH)]Y[Sar][Trp(βS-Me,7-OMe)]C-NH2 (thioether N-14; reading uncertain; also: printed as cyclo(ClAc-Nle-H-Pip2c-Trp7az-NMeE-N-4Pal-Trp7Cl-aMeS-Phe4COOH-Y-Sar-SbMeW7OMe-C)-NH2) [SEQ ID NO. 264] |  |  |  | 1.49 | 

Further lines, results first:

Row | Kd [1] [nM] | IC50 [2] [nM] | THP-1 IC50 [3] [nM] | IC50 [4] [nM] | Kd^app [5] [nM] | Binder
4 |  |  |  | 2.41 |  | {CH2CO}-[Nle][4Pal][Pip2c]W[dP]N[4Pal][Trp(7-Cl)][αMeS][Phe(4-COOH)]Y[dNMeA][Trp(βS-Me,7-OMe)]C-NH2 (thioether N-14; reading uncertain) [SEQ ID NO. 276]
5 |  |  |  |  | 0.22 | cyclo([bhcLeu][Nle][4Pal][Pip(4-aza)][Trp(7-aza)][dPro(trans-4-NMe2)]N[Phe(4-COOH)][Trp(7-CN)][αMeS][Phe(4-COOH)][RbOHPhe4CONH2][Sar][Trp(βS-Me,7-OMe)]) (SMILES CCCC[C@@H]1NC(=O)[C@@H]2CC[C@@H](C2)NC(=O)[C@H]([C@@H](C)c2c[nH]c3c(OC)cccc23)NC(=O)CN(C)C(=O)[C@H]([C@H](O)c2ccc(C(N)=O)cc2)NC(=O)[C@H](Cc2ccc(C(=O)O)cc2)NC(=O)[C@](C)(CO)NC(=O)[C@H](Cc2c[nH]c3c(C#N)cccc23)NC(=O)[C@H](Cc2ccc(C(=O)O)cc2)NC(=O)[C@H](CC(N)=O)NC(=O)[C@H]2C[C@H](N(C)C)CN2C(=O)[C@H](Cc2c[nH]c3ncccc23)NC(=O)[C@@H]2CNCCN2C(=O)[C@H](Cc2ccncc2)NC1=O) [SEQ ID NO. 287 (Example No. 287) macrocyclic peptide]
